Data from patent publication US20030229005.
Several values for one entry are separate records, joined by “and”; a condition that tells them apart may be missing. Identical values can stand only once.

Assays:
type IV collagen = type IV collagen (UniProt P08572)
[1] = system: Dnp-VC(Me)PKGITSC(Me)VFR-NH2
[2] = system: Dab-SYPSGIHLC(Flu)LQR-NH2
[3] = system: Dabcyl-GPLGMRGC(Fluorescein)-NH2

Sequence of gelatinase B (chain, as listed by the source): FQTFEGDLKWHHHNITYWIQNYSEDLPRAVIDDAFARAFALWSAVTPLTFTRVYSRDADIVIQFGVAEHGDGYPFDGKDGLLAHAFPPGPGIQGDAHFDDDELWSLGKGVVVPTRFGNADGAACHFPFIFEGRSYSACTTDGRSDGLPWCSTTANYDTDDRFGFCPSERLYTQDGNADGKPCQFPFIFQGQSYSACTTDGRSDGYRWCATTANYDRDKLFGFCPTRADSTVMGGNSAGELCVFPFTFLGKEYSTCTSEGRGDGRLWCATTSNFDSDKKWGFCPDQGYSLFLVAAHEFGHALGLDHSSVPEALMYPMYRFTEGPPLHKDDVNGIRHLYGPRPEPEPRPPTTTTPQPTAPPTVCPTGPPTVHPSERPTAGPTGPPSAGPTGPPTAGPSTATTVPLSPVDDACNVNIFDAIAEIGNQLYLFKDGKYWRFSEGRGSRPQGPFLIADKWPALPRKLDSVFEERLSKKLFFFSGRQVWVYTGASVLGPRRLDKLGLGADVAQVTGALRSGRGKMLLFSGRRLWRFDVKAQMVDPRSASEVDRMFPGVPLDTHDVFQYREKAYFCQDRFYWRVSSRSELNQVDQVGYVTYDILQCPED
Sequence of type IV collagen (P08572 26-1712, chain 1 of 2): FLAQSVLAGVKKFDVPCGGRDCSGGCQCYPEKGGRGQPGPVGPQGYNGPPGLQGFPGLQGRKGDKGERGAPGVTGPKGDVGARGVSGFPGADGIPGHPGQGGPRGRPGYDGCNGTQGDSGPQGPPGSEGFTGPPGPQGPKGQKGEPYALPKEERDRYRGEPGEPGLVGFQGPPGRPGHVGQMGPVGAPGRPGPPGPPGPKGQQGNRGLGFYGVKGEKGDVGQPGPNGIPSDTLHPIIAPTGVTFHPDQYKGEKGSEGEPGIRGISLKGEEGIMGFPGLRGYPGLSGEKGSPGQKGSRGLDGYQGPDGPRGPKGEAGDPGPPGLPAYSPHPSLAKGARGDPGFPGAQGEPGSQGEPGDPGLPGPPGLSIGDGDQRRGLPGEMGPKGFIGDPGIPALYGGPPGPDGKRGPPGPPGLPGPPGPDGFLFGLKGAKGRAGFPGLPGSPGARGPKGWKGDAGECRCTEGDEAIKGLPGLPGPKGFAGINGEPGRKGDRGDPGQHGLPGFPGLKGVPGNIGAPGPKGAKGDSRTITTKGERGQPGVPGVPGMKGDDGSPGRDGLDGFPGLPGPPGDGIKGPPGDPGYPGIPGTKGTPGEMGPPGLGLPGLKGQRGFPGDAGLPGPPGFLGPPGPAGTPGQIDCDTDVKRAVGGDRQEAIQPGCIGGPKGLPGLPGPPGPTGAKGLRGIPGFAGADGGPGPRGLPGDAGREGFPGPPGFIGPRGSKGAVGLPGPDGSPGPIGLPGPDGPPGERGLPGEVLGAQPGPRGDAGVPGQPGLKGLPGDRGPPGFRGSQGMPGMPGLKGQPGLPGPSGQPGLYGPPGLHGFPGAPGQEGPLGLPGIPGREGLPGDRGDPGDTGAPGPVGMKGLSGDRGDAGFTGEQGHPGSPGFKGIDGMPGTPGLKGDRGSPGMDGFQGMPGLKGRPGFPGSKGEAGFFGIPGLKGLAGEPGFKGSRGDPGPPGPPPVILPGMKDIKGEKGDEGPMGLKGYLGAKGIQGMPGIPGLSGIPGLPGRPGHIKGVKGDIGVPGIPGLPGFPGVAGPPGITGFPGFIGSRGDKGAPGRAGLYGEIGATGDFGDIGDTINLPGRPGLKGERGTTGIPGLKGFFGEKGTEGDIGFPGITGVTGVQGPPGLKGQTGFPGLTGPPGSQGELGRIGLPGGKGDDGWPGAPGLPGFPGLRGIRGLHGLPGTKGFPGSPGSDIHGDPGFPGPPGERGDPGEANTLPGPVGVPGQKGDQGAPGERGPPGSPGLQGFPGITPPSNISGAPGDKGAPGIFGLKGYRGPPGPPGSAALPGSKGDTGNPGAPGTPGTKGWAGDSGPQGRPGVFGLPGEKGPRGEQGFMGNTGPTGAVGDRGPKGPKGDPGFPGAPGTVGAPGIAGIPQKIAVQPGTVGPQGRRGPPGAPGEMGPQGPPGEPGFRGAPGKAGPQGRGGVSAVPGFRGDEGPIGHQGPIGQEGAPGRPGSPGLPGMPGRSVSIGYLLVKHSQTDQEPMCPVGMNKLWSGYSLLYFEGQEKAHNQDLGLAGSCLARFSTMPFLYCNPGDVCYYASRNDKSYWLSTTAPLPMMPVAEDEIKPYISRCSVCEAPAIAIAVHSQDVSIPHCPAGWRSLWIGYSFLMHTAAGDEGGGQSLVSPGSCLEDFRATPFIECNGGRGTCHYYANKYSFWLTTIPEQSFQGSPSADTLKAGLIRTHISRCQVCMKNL
Sequence of type IV collagen (chain, as listed by the source, chain 2 of 2): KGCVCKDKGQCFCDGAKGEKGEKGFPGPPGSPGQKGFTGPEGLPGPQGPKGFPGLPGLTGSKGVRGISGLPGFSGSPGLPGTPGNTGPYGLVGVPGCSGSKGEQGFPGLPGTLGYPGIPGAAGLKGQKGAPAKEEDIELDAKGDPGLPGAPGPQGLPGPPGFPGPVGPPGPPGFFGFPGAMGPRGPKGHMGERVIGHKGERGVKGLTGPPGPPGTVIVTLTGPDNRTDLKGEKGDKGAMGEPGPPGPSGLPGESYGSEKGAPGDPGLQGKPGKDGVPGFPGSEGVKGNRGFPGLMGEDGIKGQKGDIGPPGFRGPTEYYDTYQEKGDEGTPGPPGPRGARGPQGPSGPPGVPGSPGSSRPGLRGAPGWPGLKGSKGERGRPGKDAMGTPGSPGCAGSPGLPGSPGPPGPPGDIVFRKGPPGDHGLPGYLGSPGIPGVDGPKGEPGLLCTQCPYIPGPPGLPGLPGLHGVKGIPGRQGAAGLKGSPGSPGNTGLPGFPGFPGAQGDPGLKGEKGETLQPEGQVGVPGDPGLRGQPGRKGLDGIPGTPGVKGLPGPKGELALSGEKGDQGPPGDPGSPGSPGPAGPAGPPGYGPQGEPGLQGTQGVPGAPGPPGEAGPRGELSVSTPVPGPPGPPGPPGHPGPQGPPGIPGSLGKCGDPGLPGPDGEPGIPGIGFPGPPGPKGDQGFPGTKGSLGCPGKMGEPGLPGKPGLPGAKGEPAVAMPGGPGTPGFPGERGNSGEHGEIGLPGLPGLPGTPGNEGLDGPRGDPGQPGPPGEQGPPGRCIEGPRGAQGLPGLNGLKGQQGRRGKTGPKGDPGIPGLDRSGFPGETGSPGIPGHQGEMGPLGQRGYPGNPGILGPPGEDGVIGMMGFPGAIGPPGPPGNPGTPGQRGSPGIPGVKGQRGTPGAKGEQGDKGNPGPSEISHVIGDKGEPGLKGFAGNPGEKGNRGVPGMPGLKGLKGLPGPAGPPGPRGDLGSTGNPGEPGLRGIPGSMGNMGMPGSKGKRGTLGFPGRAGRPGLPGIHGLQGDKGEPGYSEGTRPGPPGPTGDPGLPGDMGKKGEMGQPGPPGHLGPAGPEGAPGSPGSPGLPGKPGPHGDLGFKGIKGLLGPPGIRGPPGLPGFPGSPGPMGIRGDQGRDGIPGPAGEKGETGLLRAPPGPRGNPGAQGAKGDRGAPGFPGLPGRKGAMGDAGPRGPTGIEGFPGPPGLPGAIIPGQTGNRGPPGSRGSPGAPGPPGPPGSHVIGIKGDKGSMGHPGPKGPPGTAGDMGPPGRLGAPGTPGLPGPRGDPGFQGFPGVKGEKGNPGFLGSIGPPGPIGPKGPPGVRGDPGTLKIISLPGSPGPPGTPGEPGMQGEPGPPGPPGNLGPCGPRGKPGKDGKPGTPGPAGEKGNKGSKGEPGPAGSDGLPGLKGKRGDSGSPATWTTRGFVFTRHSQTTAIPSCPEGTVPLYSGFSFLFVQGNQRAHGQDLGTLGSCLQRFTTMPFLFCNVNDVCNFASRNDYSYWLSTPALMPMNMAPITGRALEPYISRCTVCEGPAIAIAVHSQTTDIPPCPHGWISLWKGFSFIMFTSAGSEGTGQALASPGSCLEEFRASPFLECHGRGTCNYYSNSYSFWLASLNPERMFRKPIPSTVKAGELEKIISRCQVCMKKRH

**Q.** What does the source list for gelatinase B?
**A.** Selectivity v. Coll-3, substrate 5 uM (Dnp-GPVNFRVC(Me)-NH2): 217 unitless; cleavage seen on a gel (biglycan): stromelysin 1 and gelatinase B being able to degrade this proteoglycan; cleavage seen on a gel (type IV collagen): Both collagenase 1 and gelatinase B processed type IV collagen under the conditions used in our experiments

**Q.** With human Collagenase-3 as the substance, how does the Specificity Constant (kcat/Km) (Dnp-GPLSIQD-NH2) read?
**A.** The Specificity Constant (kcat/Km) was 868000 1/sM.

**Q.** And the Specificity Constant (kcat/Km) (Dnp-GPLPFRGC(Me)-NH2)?
**A.** The Specificity Constant (kcat/Km) was 973000 1/sM.

**Q.** What about the Specificity Constant (kcat/Km) (Dnp-GPLPLHGC(Me)-NH2) of the same substance?
**A.** The Specificity Constant (kcat/Km) was 1.1e+06 1/sM.

**Q.** And the Specificity Constant (kcat/Km) (Dnp-GPAPLHGC(Me)-NH2)?
**A.** The Specificity Constant (kcat/Km) was 1.69e+06 1/sM.

**Q.** What about the Specificity Constant (kcat/Km) (Dnp-GPHPFRG-NH2) of the same substance?
**A.** The Specificity Constant (kcat/Km) was 900000 1/sM.

**Q.** What about the Specificity Constant (kcat/Km) (Dnp-GPLQFRG-NH2) of the same substance?
**A.** Its Specificity Constant (kcat/Km) is 705000 1/sM.

**Q.** What about the Specificity Constant (kcat/Km) (Dnp-GPKGITS-NH2) of the same substance?
**A.** The Specificity Constant (kcat/Km) was 734000 1/sM.

**Q.** What about the Specificity Constant (kcat/Km) [1] of the same substance?
**A.** The Specificity Constant (kcat/Km) was 1.54e+06 1/sM.

**Q.** And the Specificity Constant (kcat/Km) (Dnp-GPAPLHVC(Me)-NH2)?
**A.** The Specificity Constant (kcat/Km) was 677000 1/sM.

**Q.** And the Specificity Constant (kcat/Km) (Dnp-GPSPFHVC(Me)-NH2)?
**A.** The Specificity Constant (kcat/Km) was 338000 1/sM.

**Q.** And the Specificity Constant (kcat/Km), substrate 5 uM (Dnp-GPVNFRVC(Me)-NH2)?
**A.** The Specificity Constant (kcat/Km), substrate 5 uM was 2.57e+06 1/sM.

**Q.** And the Specificity Constant (kcat/Km) (Dnp-GPVNLHGRC(Me)-NH2)?
**A.** Its Specificity Constant (kcat/Km) is 1.04e+06 1/sM.

**Q.** What about the Specificity Constant (kcat/Km) (Dnp-GPMSYNG-NH2) of the same substance?
**A.** Its Specificity Constant (kcat/Km) is 887000 1/sM.

**Q.** What about the Specificity Constant (Dabcyl-GPHPFRGC(Flu)-NH2) of the same substance?
**A.** Its Specificity Constant is 32700 1/sM.

**Q.** And the Specificity Constant, + Gel (Dabcyl-GPHPFRGC(Flu)-NH2)?
**A.** The Specificity Constant, + Gel was 26900 1/sM.

**Q.** And the Specificity Constant (kcat/Km) (Dnp-GPAPFRGC(Me)-NH2)?
**A.** Its Specificity Constant (kcat/Km) is 1.14e+06 1/sM.

**Q.** What about the Specificity Constant (kcat/Km) (Dnp-GPYGMRA-NH2) of the same substance?
**A.** The Specificity Constant (kcat/Km) was 5.66e+06 1/sM.

**Q.** And the Specificity Constant (kcat/Km) (Dnp-GPLSISG-NH2)?
**A.** Its Specificity Constant (kcat/Km) is 191000 1/sM.

**Q.** What about the Specificity Constant (kcat/Km) (Dnp-GPVNLHGC(Me)-NH2) of the same substance?
**A.** The Specificity Constant (kcat/Km) was 813000 1/sM.

**Q.** And the “cleavage seen on a gel” value (biglycan)?
**A.** Its value is “Cleavage of biglycan generated peptide fragments of 28, 17, 8, and 6 kDa”.

**Q.** What about the Specificity Constant (kcat/Km) (Dnp-VTPYNMRG-NH2) of the same substance?
**A.** The Specificity Constant (kcat/Km) was 2.69e+06 1/sM.

**Q.** What about the Specificity Constant (kcat/Km) (Dnp-GPLPFRVC(Me)-NH2) of the same substance?
**A.** The Specificity Constant (kcat/Km) was 1.29e+06 1/sM.

**Q.** And the Specificity Constant (kcat/Km) (Dnp-GPINLHG-NH2)?
**A.** The Specificity Constant (kcat/Km) was 700000 1/sM.

**Q.** And the Specificity Constant (kcat/Km) (Dnp-GPHPMRG-NH2)?
**A.** The Specificity Constant (kcat/Km) was 2.33e+06 1/sM.

**Q.** What about the Specificity Constant (kcat/Km) (Dnp-PSGIHL-NH2) of the same substance?
**A.** Its Specificity Constant (kcat/Km) is 91700 1/sM.

**Q.** What about the Specificity Constant (kcat/Km) (Dnp-DEGPMGLKC(Me)YLG-NH2) of the same substance?
**A.** Its Specificity Constant (kcat/Km) is 528000 1/sM.

**Q.** What about the Specificity Constant (kcat/Km) (Dnp-GPVNLHG-NH2) of the same substance?
**A.** Its Specificity Constant (kcat/Km) is 1.15e+06 1/sM.

**Q.** And the Specificity Constant (kcat/Km) (Dnp-GPKGMRG-NH2)?
**A.** Its Specificity Constant (kcat/Km) is 2.32e+06 1/sM.

**Q.** And the Specificity Constant (kcat/Km) (Dnp-GPSELKG-NH2)?
**A.** Its Specificity Constant (kcat/Km) is 862000 1/sM.

**Q.** And the Specificity Constant (kcat/Km) (Dnp-GPSPFRGC(Me)-NH2)?
**A.** Its Specificity Constant (kcat/Km) is 1.3e+06 1/sM.

**Q.** What about the Specificity Constant (kcat/Km) (Dnp-GPAPFRVC(Me)-NH2) of the same substance?
**A.** The Specificity Constant (kcat/Km) was 1.76e+06 1/sM.

**Q.** And the Specificity Constant (Dabcyl-GPVNLHGC(Flu)-NH2)?
**A.** The Specificity Constant was 421000 1/sM.

**Q.** And the Specificity Constant, 0.85 to 2.10 Hours, + 1.6 ug/ml TIICol (Dabcyl-GPVNLHGC(Flu)-NH2)?
**A.** The Specificity Constant, 0.85 to 2.10 Hours, + 1.6 ug/ml TIICol was 1.54e+06 1/sM.

**Q.** What about the Specificity Constant, 0.85 to 2.10 Hours, + 4.9 ug/ml TIICol (Dabcyl-GPVNLHGC(Flu)-NH2) of the same substance?
**A.** The Specificity Constant, 0.85 to 2.10 Hours, + 4.9 ug/ml TIICol was 1.88e+06 1/sM.

**Q.** What about the Specificity Constant, 0.85 to 2.10 Hours, + 15 ug/ml TIICol (Dabcyl-GPVNLHGC(Flu)-NH2) of the same substance?
**A.** Its Specificity Constant, 0.85 to 2.10 Hours, + 15 ug/ml TIICol is 2.25e+06 1/sM.

**Q.** And the Specificity Constant, 0.85 to 2.10 Hours, + 44 ug/ml TIICol (Dabcyl-GPVNLHGC(Flu)-NH2)?
**A.** Its Specificity Constant, 0.85 to 2.10 Hours, + 44 ug/ml TIICol is 2.55e+06 1/sM.

**Q.** And the Specificity Constant, 0.85 to 2.10 Hours, + .18 ug/ml TIICol (Dabcyl-GPVNLHGC(Flu)-NH2)?
**A.** The Specificity Constant, 0.85 to 2.10 Hours, + .18 ug/ml TIICol was 1.33e+06 1/sM.

**Q.** And the Specificity Constant, 0.85 to 2.10 Hours, + .55 ug/ml TIICol (Dabcyl-GPVNLHGC(Flu)-NH2)?
**A.** The Specificity Constant, 0.85 to 2.10 Hours, + .55 ug/ml TIICol was 1.47e+06 1/sM.

**Q.** What about the Specificity Constant, 0.85 to 2.10 Hours, no TIICol (Dabcyl-GPVNLHGC(Flu)-NH2) of the same substance?
**A.** Its Specificity Constant, 0.85 to 2.10 Hours, no TIICol is 1.11e+06 1/sM.

**Q.** And the Specificity Constant, + Gel (Dabcyl-GPVNLHGC(Flu)-NH2)?
**A.** Its Specificity Constant, + Gel is 471000 1/sM.

**Q.** What about the Specificity Constant (kcat/Km) (Dnp-PHPFRG-NH2) of the same substance?
**A.** Its Specificity Constant (kcat/Km) is 230000 1/sM.

**Q.** And the Specificity Constant (kcat/Km) (Dnp-GPLGFRVC(Me)-NH2)?
**A.** Its Specificity Constant (kcat/Km) is 3.92e+06 1/sM.

**Q.** And the Specificity Constant (kcat/Km) (Dnp-GPLGLHGC(Me)-NH2)?
**A.** The Specificity Constant (kcat/Km) was 3.73e+06 1/sM.

**Q.** And the Specificity Constant (kcat/Km) (Dnp-PINLHG-NH2)?
**A.** Its Specificity Constant (kcat/Km) is 377000 1/sM.

**Q.** What about the Specificity Constant (kcat/Km) (Dnp-GPSGIHV-NH2) of the same substance?
**A.** Its Specificity Constant (kcat/Km) is 1.41e+06 1/sM.

**Q.** And the Specificity Constant (kcat/Km) (Dnp-GPLSFQG-NH2)?
**A.** The Specificity Constant (kcat/Km) was 454000 1/sM.

**Q.** What about the Specificity Constant (kcat/Km) (Dnp-GPLGLHVC(Me)-NH2) of the same substance?
**A.** Its Specificity Constant (kcat/Km) is 4.46e+06 1/sM.

**Q.** What about the Specificity Constant (kcat/Km) (Dnp-GPRPFRG-NH2) of the same substance?
**A.** The Specificity Constant (kcat/Km) was 634000 1/sM.

**Q.** What about the Specificity Constant (kcat/Km) (Dnp-GPLQMRG-NH2) of the same substance?
**A.** The Specificity Constant (kcat/Km) was 885000 1/sM.

**Q.** What about the Specificity Constant (kcat/Km) (Dnp-GPFGLKG-NH2) of the same substance?
**A.** Its Specificity Constant (kcat/Km) is 1.28e+06 1/sM.

**Q.** What about the Specificity Constant (kcat/Km) (Dnp-GPLPFHVC(Me)-NH2) of the same substance?
**A.** The Specificity Constant (kcat/Km) was 598000 1/sM.

**Q.** And the “sensitivity for collagenase 3 against the consensus substrate FlSb1” value [2]?
**A.** The value was 100-fold less sensitive for collagenase 3 compared to the consensus substrate.

**Q.** What about the Specificity Constant (kcat/Km) (Dnp-PLGMRG-NH2) of the same substance?
**A.** Its Specificity Constant (kcat/Km) is 980000 1/sM.

**Q.** What about the Specificity Constant (kcat/Km) (Dnp-GPSGIHL-NH2) of the same substance?
**A.** The Specificity Constant (kcat/Km) was 284000 1/sM.

**Q.** What about the Specificity Constant (kcat/Km) (Dnp-GPLGFRGC(Me)-NH2) of the same substance?
**A.** The Specificity Constant (kcat/Km) was 2.4e+06 1/sM.

**Q.** What about the Specificity Constant [3] of the same substance?
**A.** Its Specificity Constant is 4.4e+06 1/sM and 1.62e+06 1/sM.

**Q.** And the Specificity Constant, + Gel [3]?
**A.** The Specificity Constant, + Gel was 1.74e+06 1/sM.

**Q.** What about the Specificity Constant (kcat/Km) (Dnp-GPSPLHGC(Me)-NH2) of the same substance?
**A.** The Specificity Constant (kcat/Km) was 1.76e+06 1/sM.

**Q.** And the Specificity Constant (kcat/Km), + 1:1 Gelatin (Dnp-GPLGMRG-NH2)?
**A.** Its Specificity Constant (kcat/Km), + 1:1 Gelatin is 340000 1/sM.

**Q.** What about the Specificity Constant (kcat/Km), + 1:4 Gelatin (Dnp-GPLGMRG-NH2) of the same substance?
**A.** The Specificity Constant (kcat/Km), + 1:4 Gelatin was 562000 1/sM.

**Q.** And the Specificity Constant (kcat/Km), + 1:16 Gelatin (Dnp-GPLGMRG-NH2)?
**A.** The Specificity Constant (kcat/Km), + 1:16 Gelatin was 1.93e+06 1/sM.

**Q.** What about the Specificity Constant (kcat/Km), + 1:64 Gelatin (Dnp-GPLGMRG-NH2) of the same substance?
**A.** The Specificity Constant (kcat/Km), + 1:64 Gelatin was 2.67e+06 1/sM.

**Q.** What about the Specificity Constant (kcat/Km), + 1:256 Gelatin (Dnp-GPLGMRG-NH2) of the same substance?
**A.** The Specificity Constant (kcat/Km), + 1:256 Gelatin was 4.65e+06 1/sM.

**Q.** And the Specificity Constant (kcat/Km), + H2O (Dnp-GPLGMRG-NH2)?
**A.** Its Specificity Constant (kcat/Km), + H2O is 3.16e+06 1/sM.

**Q.** And the “cleavage seen on a gel” value (type IV collagen)?
**A.** The value was “type IV collagen digestion gave 3-4 detectable cleavage products (85 kDa, 80 kDa, 35 kDa and 28 kDa”.

**Q.** For stromelysin 1, which Selectivity v. Coll-3, substrate 5 uM (Dnp-GPVNFRVC(Me)-NH2) is on record?
**A.** Its Selectivity v. Coll-3, substrate 5 uM is 400 unitless.

**Q.** And the “cleavage seen on a gel” value (biglycan)?
**A.** Its value is “stromelysin 1 and gelatinase B being able to degrade this proteoglycan”.
